Literature values, collected in publication PMC9623233 (Clinical Cancer Research, 2022).
Like-named read-outs stand apart in the source and are kept apart here.

Conditions: cited from earlier work

Q: What does the source list for “mirvetuximab soravtansine: α-FR–targeted antibody–drug conjugate with maytansine payload”?
A: Pneumonitis (combined with bevacizumab): 9%; Pneumonitis (single agent): 2.9%
